Experimental data reported in article PMC7588011, “Engineering Stem Cell Factor Ligands with Different c-Kit Agonistic Potencies” (Molecules, 2020).
Changes are numbered by the printed parent chain. Numbers in names are those of the source.

Columns and labels:
[1] = target: SCFM, stem cell factor V49L F63L double mutant, soluble (UniProt P21583); assay: small angle X-ray scattering; purified SCFWT and SCFM at 3 or 5 mg/mL (193 or 322 µM), 25 °C; radius of gyration compared with that of the theoretical monomer and dimer from PDB 1SCF
[2] = target: T1, recombinant c-Kit (R&D Systems) (UniProt P10721 26-524); assay: SPR; ProteOn XPR36; c-Kit amine-coupled to a GLC chip; SCF proteins flowed in PBST at 100 µL/min, 25 °C; KD from the equilibrium-binding phase, 1:1 Langmuir model; BSA channel subtracted; conditions: both partners purified
T1 construct: c-Kit receptor tyrosine kinase, recombinant; No catalogue number printed; the discussion calls it 'recombinant soluble c-Kit'; also called surface-immobilized c-Kit; recombinant soluble c-Kit; source: bought: R&D Systems
T1 sequence (P10721 26-524): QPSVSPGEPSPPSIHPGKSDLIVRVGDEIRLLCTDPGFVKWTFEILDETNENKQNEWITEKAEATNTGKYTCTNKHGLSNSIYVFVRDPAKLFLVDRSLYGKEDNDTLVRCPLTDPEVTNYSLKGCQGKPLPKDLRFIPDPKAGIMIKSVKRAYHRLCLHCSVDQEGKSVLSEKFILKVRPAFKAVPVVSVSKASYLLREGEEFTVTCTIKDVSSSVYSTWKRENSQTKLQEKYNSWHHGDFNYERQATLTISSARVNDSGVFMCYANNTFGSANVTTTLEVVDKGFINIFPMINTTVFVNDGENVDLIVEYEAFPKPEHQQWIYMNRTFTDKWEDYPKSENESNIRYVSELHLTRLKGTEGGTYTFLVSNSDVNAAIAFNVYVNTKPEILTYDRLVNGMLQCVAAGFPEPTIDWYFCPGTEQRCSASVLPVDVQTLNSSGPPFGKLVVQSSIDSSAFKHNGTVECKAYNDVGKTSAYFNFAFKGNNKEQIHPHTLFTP

Molecule: SCFM, stem cell factor V49L F63L double mutant, soluble (from UniProt P21583 26-214) (ligand)
- stoichiometry N [1]: 2

B1: SCF_(M,K91E), soluble (ligand, UniProt P21583 26-214, looked up)
chain: EGICRNRVTNNVKDVTKLVANLPKDYMITLKYVPGMDVLPSHCWISEMLVQLSDSLTDLLDKLSNISEGLSNYSIIDKLVNIVDDLVECVEENSSKDLKKSFKSPEPRLFTPEEFFRIFNRSIDAFKDFVVASETSDCVVSSTLSPEKDSRVSVTKPFMLPPVAASSLRNDSSSSNRKAKNPPGDSSLH
notes: stem cell factor (SCF), SCFM (V49L, F63L) with K91E, selected from the first-generation yeast display library; source: purified in non-glycosylated form (production described in the Supplementary Materials)
- Kd [2]: 88.9 nM

B2: SCF_(M,S64P,F126S,V131A,E134G,V139I), soluble (ligand, UniProt P21583 26-214, looked up)
chain: B1 chain with S64P, E91K, F126S, V131A, E134G, V139I
notes: stem cell factor (SCF), SCFM (V49L, F63L) with S64P, F126S, V131A, E134G and V139I, selected from the first-generation yeast display library; also called SCFM,N; source: purified in non-glycosylated form (production described in the Supplementary Materials)
- Kd [2]: 74.4 nM

B3: SCF_(M,K91E,L98R), soluble (ligand, UniProt P21583 26-214, looked up)
chain: B1 chain with L98R
notes: stem cell factor (SCF), SCFM (V49L, F63L) with K91E and L98R, selected from the second-generation yeast display library; also called SCF_(K91E,L98R); source: purified in non-glycosylated form (production described in the Supplementary Materials)
- Kd [2]: 40.7 nM
